Key:
[1] = biological target: gelsolin (African green monkey (endogenous in CV1)); assay: co-IP
[2] = biological target: actin (African green monkey (endogenous in CV1)); assay: pull-down

With actin (natural protein) the actin:gelsolin 35S intensity ratio, PIP5KI-overexpressing cells [1] was 25.7% and the actin:gelsolin 35S intensity ratio, β-gal cells [1] was 39.4%.
profilin (natural protein) showed a decrease in profilin bound to actin, PIP5KI-overexpressing against β-gal cells [2] of 51%.
Work on gelsolin (natural protein) yielded an actin:gelsolin staining intensity ratio, PIP5KI-overexpressing cells [2] of 1.25 and an actin:gelsolin staining intensity ratio, β-gal cells [2] of 1.91.

Source: publication PMC2198810
